Source: paper PMC11452378 (Scientific Reports, 2024)

B1: Pembrolizumab (antibody, V domains shown)
VH: QVQLVQSGVEVKKPGASVKVSCKASGYTFTNYYMYWVRQAPGQGLEWMGGINPSNGGTNFNEKFKNRVTLTTDSSTTTAYMELKSLQFDDTAVYYCARRDYRFDMGFDYWGQGTTVTVSS
VL: EIVLTQSPATLSLSPGERATLSCRASKGVSTSGYSYLHWYQQKPGQAPRLLIYLASYLESGVPARFSGSGSGTDFTLTISSLEPEDFAVYYCQHSRDLPLTFGGGTKVEIK
notes: variable domain of the pembrolizumab heavy chain; constant region of the IgG4 heavy chain; light chain of pembrolizumab; IgG4; Whole therapeutic antibody in all assays; also called anti-PD-1 antibody; IgG4
B2: Prolgolimab (antibody, V domains shown)
VH: QVQLVQSGGGLVQPGGSLRLSCAASGFTFSSYWMYWVRQVPGKGLEWVSAIDTGGGRTYYADSVKGRFAISRVNAKNTMYLQMNSLRAEDTAVYYCARDEGGGTGWGVLKDWPYGLDAWGQGTLVTVSS
VL: QPVLTQPLSVSVALGQTARITCGGNNIGSKNVHWYQQKPGQAPVLVIYRDSNRPSGIPERFSGSNSGNTATLTISRAQAGDEADYYCQVWDSSTAVFGTGTKLTVL

Experiments:
[1] = biological target: extracellular fragment of FcγRIIa (131R); test: BLI; biotinylated FcγR immobilized on Streptavidin (SA) biosensors (Octet Red384); antibodies in solution as serial dilutions; PBS pH 7.4 0.1% BSA 0.1% Tween-20; at least triplicate
[2] = biological target: extracellular fragment of FcγRIIIa (158V); test: as above
[3] = biological target: extracellular fragment of FcγRIIa (131H) (UniProt P12318); test: as above
extracellular fragment of FcγRIIa (131H), sequence (P12318 34-217): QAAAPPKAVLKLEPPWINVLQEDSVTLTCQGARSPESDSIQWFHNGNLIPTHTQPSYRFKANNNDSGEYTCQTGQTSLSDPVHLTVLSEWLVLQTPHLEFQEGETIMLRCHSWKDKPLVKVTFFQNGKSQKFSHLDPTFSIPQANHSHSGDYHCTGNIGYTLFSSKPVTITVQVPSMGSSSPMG

[4] = biological target: extracellular fragment of FcγRIa (UniProt P12314); test: as above
extracellular fragment of FcγRIa, sequence (P12314 16-292): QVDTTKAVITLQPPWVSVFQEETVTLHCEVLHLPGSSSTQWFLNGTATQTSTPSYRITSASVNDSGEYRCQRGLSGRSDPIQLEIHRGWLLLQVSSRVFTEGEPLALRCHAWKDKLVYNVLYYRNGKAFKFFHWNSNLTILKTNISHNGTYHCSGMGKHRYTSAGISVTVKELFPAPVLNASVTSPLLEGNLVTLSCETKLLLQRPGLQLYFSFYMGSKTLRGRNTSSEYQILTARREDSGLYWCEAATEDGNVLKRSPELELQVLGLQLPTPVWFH

[5] = biological target: extracellular fragment of FcγRIIb (UniProt P31994); test: as above
extracellular fragment of FcγRIIb, sequence (P31994 43-217): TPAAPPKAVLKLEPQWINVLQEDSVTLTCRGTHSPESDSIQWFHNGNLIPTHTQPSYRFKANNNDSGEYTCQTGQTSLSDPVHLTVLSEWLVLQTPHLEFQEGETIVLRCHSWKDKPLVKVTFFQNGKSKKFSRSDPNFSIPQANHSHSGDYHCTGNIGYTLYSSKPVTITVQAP

[6] = biological target: extracellular fragment of FcγRIIIa (158F) (UniProt P08637); test: as above
extracellular fragment of FcγRIIIa (158F), sequence (P08637 17-208): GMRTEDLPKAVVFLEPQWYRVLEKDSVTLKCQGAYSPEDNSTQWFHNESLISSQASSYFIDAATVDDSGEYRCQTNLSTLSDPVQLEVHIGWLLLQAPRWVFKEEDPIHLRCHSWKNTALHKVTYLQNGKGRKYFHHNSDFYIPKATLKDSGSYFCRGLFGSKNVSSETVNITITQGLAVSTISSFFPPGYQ

[7] = biological target: extracellular fragment of FcRn (UniProt P55899); test: BLI; biotinylated FcRn immobilized on Streptavidin (SA) biosensors (Octet Red384); antibodies in solution, 345 to 5.39 nM; PBS-HCl pH 6.0 0.1% Tween-20; at least triplicate
extracellular fragment of FcRn, sequence (P55899 24-297): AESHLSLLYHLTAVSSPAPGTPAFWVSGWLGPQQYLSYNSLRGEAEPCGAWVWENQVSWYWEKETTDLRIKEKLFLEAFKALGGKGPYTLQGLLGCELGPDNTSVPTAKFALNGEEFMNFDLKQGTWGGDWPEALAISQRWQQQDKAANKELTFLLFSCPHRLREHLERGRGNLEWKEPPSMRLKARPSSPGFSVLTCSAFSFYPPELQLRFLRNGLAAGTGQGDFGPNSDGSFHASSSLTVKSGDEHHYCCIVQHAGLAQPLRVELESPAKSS

[8] = biological target: T1, extracellular domain of PD-1 receptor (R&D Systems) (Homo sapiens, UniProt Q15116); test: SPR; PD-1 extracellular domain immobilized on a Planar Polyethylene Glycol/Carboxyl Sensor Chip (Reichert4SPR); antibodies in solution, 10; 3.33; 1.11; 0.37; 0.12 nM in PBS 0.02% Tween-20 pH 7.4; multi-step kinetics; triplicate; settings: both partners purified
T1 construct: Programmed cell death protein 1 (PD-1), extracellular domain; also called Programmed cell death protein 1; source: bought: R&D Systems
T1 sequence (Q15116 25-170): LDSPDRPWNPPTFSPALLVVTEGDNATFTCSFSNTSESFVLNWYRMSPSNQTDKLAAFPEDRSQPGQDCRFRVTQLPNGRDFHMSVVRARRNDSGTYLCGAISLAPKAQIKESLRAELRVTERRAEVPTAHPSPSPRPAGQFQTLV

Row | Molecule | Kd [1] [µM] | Kd [2] [µM] | Kd [3] [µM] | Kd [4] [µM] | Kd [5] [µM] | Kd [6] [µM] | Kd [7] [µM] | Kd [8] [pM]
1 | Pembrolizumab (antibody) | 5.17 | 5.24 |  |  |  |  |  | 
2 | Nivolumab (antibody) | 2 | 8.97 | 13.1 | 0.074 | 0.93 | 16.6 | 0.0248 | 
3 | B1 |  |  | 11.1 | 0.085 | 8.64 | 19.9 | 0.025 | 4.7
4 | B2 | 9.66 | 1.33 | 14.6 | 0.9 | 21 | 12.7 | 0.0153 | 
